What was measured:
HeLa Kyoto [1] = assay: solubility in G1/S (NP-40 vs SDS abundance) (log2 ratio); higher = more soluble; conditions: cell cycle stage: G1/S
HeLa Kyoto [2] = assay: melting temperature (median over replicates), in situ; higher = more thermally stable
HeLa Kyoto [3] = assay: solubility change mitosis vs G1/S (difference of NP-40 vs SDS log2 ratios) (log2 ratio difference); higher = more soluble in mitosis
HeLa Kyoto [4] = assay: thermal stability score vs G1/S (z-score of summed log2 fold changes over temperatures); higher = more thermally stable than in G1/S
[5] = cell cycle stage: early G1 (4.5 h after nocodazole release)
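Throughout, for melting temperature (median over replicates), in situ: HeLa Kyoto cells synchronized by double thymidine or nocodazole block, proteins quantified by TMT10plex mass spectrometry, three independent biological replicates.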
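Throughout, for solubility change mitosis vs G1/S (difference of NP-40 vs SDS log2 ratios): synchronized HeLa Kyoto cells (double thymidine block for G1/S, nocodazole release for mitosis), protein amounts in NP-40 versus SDS lysates quantified by mass spectrometry, three biological replicates.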
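Throughout, for solubility in G1/S (NP-40 vs SDS abundance): HeLa Kyoto cells arrested at G1/S by double thymidine block, proteins quantified by TMT10plex mass spectrometry in mild NP-40 versus SDS extracts, three biological replicates.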
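Throughout, for thermal stability score vs G1/S (z-score of summed log2 fold changes over temperatures): synchronized HeLa Kyoto cells, proteins quantified by TMT10plex mass spectrometry, three biological replicates, mitosis taken 0.5 h after nocodazole release, G1/S directly after double thymidine block.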

Sequence	solubility in G1/S (log2) (HeLa Kyoto [1])	melting temperature (HeLa Kyoto [2]; cell cycle stage: G1/S)	melting temperature (HeLa Kyoto [2]; cell cycle stage: mitosis)	solubility change mitosis (log2) (HeLa Kyoto [3])	thermal stability score (HeLa Kyoto [4]; [5])	thermal stability score (HeLa Kyoto [4]; cell cycle stage: mitosis)
MSAFSEAALEKKLSELSNSQQSVQTLSLWLIHHRKHSRPIVTVWERELRKAKPNRKLTFLYLANDVIQNSKRKGPEFTKDFAPVIVEAFKHVSSETDESCKKHLGRVLSIWEERSVYENDVLEQLKQALYGDKKPRKRTYEQIKVDENENCSSLGSPSEPPQTLDLVRALQDLENAASGDAAVHQRIASLPVEVQEVSLLDKITDKESGERLSKMVEDACMLLADYNGRLAAEIDDRKQLTRMLADFLRCQKEALAEKEHKLEEYKRKLARVSLVRKELRSRIQSLPDLSRLPNVTGSHMHLPFAGDIYSED [RPRD1A]	0.66	48 °C	49.5 °C	-0.0443	1.27	1.64
MSAIQAAWPSGTECIAKYNFHGTAEQDLPFCKGDVLTIVAVTKDPNWYKAKNKVGREGIIPANYVQKREGVKAGTKLSLMPWFHGKITREQAERLLYPPETGLFLVRESTNYPGDYTLCVSCDGKVEHYRIMYHASKLSIDEEVYFENLMQLVEHYTSDADGLCTRLIKPKVMEGTVAAQDEFYRSGWALNMKELKLLQTIGKGEFGDVMLGDYRGNKVAVKCIKNDATAQAFLAEASVMTQLRHSNLVQLLGVIVEEKGGLYIVTEYMAKGSLVDYLRSRGRSVLGGDCLLKFSLDVCEAMEYLEGNNFVHRDLAARNVLVSEDNVAKVSDFGLTKEASSTQDTGKLPVKWTAPEALREKKFSTKSDVWSFGILLWEIYSFGRVPYPRIPLKDVVPRVEKGYKMDAPDGCPPAVYEVMKNCWHLDAAMRPSFLQLREQLEHIKTHELHL [CSK]	0.0872	49.3 °C	49.8 °C	-0.139	-0.12	0.74
MSAKAISEQTGKELLYKFICTTSAIQNRFKYARVTPDTDWARLLQDHPWLLSQNLVVKPDQLIKRRGKLGLVGVNLTLDGVKSWLKPRLGQEATVGKATGFLKNFLIEPFVPHSQAEEFYVCIYATREGDYVLFHHEGGVDVGDVDAKAQKLLVGVDEKLNPEDIKKHLLVHAPEDKKEILASFISGLFNFYEDLYFTYLEINPLVVTKDGVYVLDLAAKVDATADYICKVKWGDIEFPPPFGREAYPEEAYIADLDAKSGASLKLTLLNPKGRIWTMVAGGGASVVYSDTICDLGGVNELANYGEYSGAPSEQQTYDYAKTILSLMTREKHPDGKILIIGGSIANFTNVAATFKGIVRAIRDYQGPLKEHEVTIFVRRGGPNYQEGLRVMGEVGKTTGIPIHVFGTETHMTAIVGMALGHRPIPNQPPTAAHTANFLLNASGSTSTPAPSRTASFSESRADEVAPAKKAKPAMPQDSVPSPRSLQGKSTTLFSRHTKAIVWGMQTRAVQGMLDFDYVCSRDEPSVAAMVYPFTGDHKQKFYWGHKEILIPVFKNMADAMRKHPEVDVLINFASLRSAYDSTMETMNYAQIRTIAIIAEGIPEALTRKLIKKADQKGVTIIGPATVGGIKPGCFKIGNTGGMLDNILASKLYRPGSVAYVSRSGGMSNELNNIISRTTDGVYEGVAIGGDRYPGSTFMDHVLRYQDTPGVKMIVVLGEIGGTEEYKICRGIKEGRLTKPIVCWCIGTCATMFSSEVQFGHAGACANQASETAVAKNQALKEAGVFVPRSFDELGEIIQSVYEDLVANGVIVPAQEVPPPTVPMDYSWARELGLIRKPASFMTSICDERGQELIYAGMPITEVFKEEMGIGGVLGLLWFQKRLPKYSCQFIEMCLMVTADHGPAVSGAHNTIICARAGKDLVSSLTSGLLTIGDRFGGALDAAAKMFSKAFDSGIIPMEFVNKMKKEGKLIMGIGHRVKSINNPDMRVQILKDYVRQHFPATPLLDYALEVEKITTSKKPNLILNVDGLIGVAFVDMLRNCGSFTREEADEYIDIGALNGIFVLGRSMGFIGHYLDQKRLKQGLYRHPWDDISYVLPEHMSM [ACLY]	-0.0323	52.2 °C	52.6 °C	-0.156	2.8	4.04
MSALEWYAHKSLGDGIFWIQERFYESGNRANIWLVRGSEQDVVIDTGLGLRSLPEYLYSSGLLQDREAKEDAARRPLLAVATHVHFDHSGGLYQFDRVAVHHAEAEALARGDNFETVTWLSDSEVVRTPSPGWRARQFRVQAVQPTLILQDGDVINLGDRQLTVMHMPGHSRGSICLHDKDRKILFSGDVVYDGSLIDWLPYSRISDYVGTCERLIELVDRGLVEKVLPGHFNTFGAERLFRLASNYISKAGICHKVSTFAMRSLASLALRVTNSRTSP [MBLAC2]	-0.203	55.4 °C	54.6 °C	0.0124	-1.94	-1.79

Reference: the supplement of paper PMC5998384
